Molecular target: human GLP-1 receptor (human) (UniProt P43220)
Assay: cell-based or functional assay

Sequence of UniProt P43220 (P43220 24-463): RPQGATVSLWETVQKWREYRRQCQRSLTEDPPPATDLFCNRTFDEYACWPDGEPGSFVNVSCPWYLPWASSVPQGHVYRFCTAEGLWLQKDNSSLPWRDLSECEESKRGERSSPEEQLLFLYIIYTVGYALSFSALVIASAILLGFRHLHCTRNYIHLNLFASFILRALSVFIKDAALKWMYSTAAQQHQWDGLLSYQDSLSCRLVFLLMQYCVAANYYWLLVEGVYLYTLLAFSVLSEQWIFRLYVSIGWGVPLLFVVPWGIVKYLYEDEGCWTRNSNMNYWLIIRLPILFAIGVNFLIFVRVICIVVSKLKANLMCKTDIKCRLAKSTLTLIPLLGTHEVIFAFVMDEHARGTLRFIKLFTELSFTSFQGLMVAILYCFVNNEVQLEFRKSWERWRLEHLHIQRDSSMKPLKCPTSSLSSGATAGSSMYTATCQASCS

Substance | Activity (EC50 relative to Val^8-GLP-1(7-37)OH), CRE-BLAM beta-lactamase reporter in HEK-293 cells expressing human GLP-1 receptor | Activity (EC50 relative to Val^8-GLP-1(7-37)OH), CRE-Luciferase reporter in HEK-293 cells stably expressing human GLP-1 receptor | Activity (EC50 relative to Val^8-GLP-1(7-37)OH, corrected for 2-fold molarity of the dimer), CRE-Luciferase reporter in HEK-293 cells stably expressing human GLP-1 receptor
Val^8-GLP-1(7-37)OH (from UniProt P01275 21-180) (peptide) | 100% | 100% | –
Gly^8-Glu^22-GLP-1(7-37)-1.5L-IgG4 (S228P, F234A, L235A) (from UniProt P01275 98-128) (Fc fusion) | 314% | – | 595%
Gly^8-Glu^22-GLP-1(7-37)-2L-IgG4 (S228P, F234A, L235A) (from UniProt P01275 98-128) (Fc fusion) | 301% | – | 535%
Gly^8-Glu^22-GLP-1(7-37)-1L-IgG4 (S228P, F234A, L235A) (from UniProt P01275 98-128) (Fc fusion) | 468% | – | 1120%
